In general, pKd refers to −log10 of the Kd, conventionally taken in molar units.

Consider one sequence from paper PMC3775802.

Data set [1] addresses T1, human alpha-thrombin (THR) (Homo sapiens) (UniProt P00734+P00734). Kind of data set: competition (SPRi, free thrombin quantification). The settings on record: 5' amino modifier C6 as ordered; 20 mM Tris-HCl pH 7.4, 1 mM MgCl2, 120 mM NaCl, 10 mM KCl; thrombin co-injected with 500 nM cytochrome c; binding temperature not stated.
For data set [2], the target named is T1, human alpha-thrombin (THR) (Homo sapiens). The experiment in a line: back-scattering interferometry. The settings on record: 5' amino modifier C6 as ordered; 20 mM Tris-HCl pH 7.4, 1 mM MgCl2, 120 mM NaCl, 10 mM KCl; thrombin co-injected with 500 nM cytochrome c; binding temperature not stated; cited from earlier work.

pKd: −log10 of the molar value.

Regarding “TTTTTTTTTTAGTCCGTGGTAGGGGAGGTTGGGGTGACT [APT (anti-thrombin aptamer), solution competitor]”, the results for the negative-log Kd (pKd) in data set [1] and in data set [2] were 8.50 and 8.42, respectively.
